Experimental data reported in CN1678347A.

Legend:
[1] = target: PSGL-1 (P-选择蛋白糖蛋白配体-1) (human) (UniProt Q14242); experiment: FACS competition on ML2 cells, 200ng KPL-1 against IgG Y1-PE
[2] = target: PSGL-1 (P-选择蛋白糖蛋白配体-1) (human) (UniProt Q14242); experiment: FACS on ML2 cells, KPL-1-PE alone

Sequence of UniProt Q14242 (Q14242 42-412): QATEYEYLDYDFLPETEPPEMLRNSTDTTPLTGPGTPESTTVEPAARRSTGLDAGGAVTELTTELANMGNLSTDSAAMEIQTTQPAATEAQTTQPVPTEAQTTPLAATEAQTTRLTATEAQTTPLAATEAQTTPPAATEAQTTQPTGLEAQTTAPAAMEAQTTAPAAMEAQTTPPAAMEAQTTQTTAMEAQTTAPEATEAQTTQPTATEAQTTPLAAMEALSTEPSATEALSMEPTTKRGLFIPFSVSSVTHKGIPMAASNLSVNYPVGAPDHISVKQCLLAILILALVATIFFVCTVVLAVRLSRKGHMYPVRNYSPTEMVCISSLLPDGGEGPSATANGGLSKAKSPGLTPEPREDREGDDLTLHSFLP

Substance: KPL-1 (商业化供应的抗PSGL1小鼠单克隆抗体) (antibody)
- 中值 of IgG Y1-PE with competitor (median fluorescence) [1]: 2
- 抑制百分比 [1]: 100%
- 中值 (median fluorescence) [2]: 700
